Test results: article PMC11006747, “The E3 ubiquitin ligase ITCH negatively regulates intercellular communication via gap junctions by targeting connexin43 for lysosomal degradation” (Cellular and Molecular Life Sciences: CMLS, 2024)

Target: T1, Cx43-WT (human connexin43, transiently expressed) (human, UniProt P17302 1-382)
T1 construct: human connexin43 (Cx43; gene GJA1) from the expression plasmid pcDNA I/Neo; source: HeLa cells negative for Cx43, transfected (pcDNA I/Neo), in lysate
Assay: co-IP; lysates of HeLa cells negative for Cx43, co-transfected 48 h with Cx43-WT or Cx43-P283A and HA-ITCH-WT, immunoprecipitated with anti-Cx43 antibodies cross-linked to protein A-Sepharose, 2 h at 4 °C; HA-ITCH detected by western blot with anti-HA and normalised to Cx43 in the immunoprecipitate; in one experiment cells treated with DMSO or bafilomycin A1 (200 nM) for the last 18 h; rabbit IgG as control
Conditions: partners not purified

T1 sequence (P17302 whole entry): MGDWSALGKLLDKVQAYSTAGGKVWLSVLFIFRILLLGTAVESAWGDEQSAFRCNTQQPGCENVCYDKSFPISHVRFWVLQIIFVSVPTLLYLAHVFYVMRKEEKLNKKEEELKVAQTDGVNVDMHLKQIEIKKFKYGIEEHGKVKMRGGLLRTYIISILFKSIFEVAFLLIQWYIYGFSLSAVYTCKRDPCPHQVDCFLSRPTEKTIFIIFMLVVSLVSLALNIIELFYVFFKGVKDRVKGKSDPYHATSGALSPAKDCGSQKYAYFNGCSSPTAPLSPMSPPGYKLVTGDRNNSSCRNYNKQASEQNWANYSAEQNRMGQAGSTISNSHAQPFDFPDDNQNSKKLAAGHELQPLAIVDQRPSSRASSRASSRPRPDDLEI

- fold increase of co-immunoprecipitated HA-ITCH with bafilomycin A1 against DMSO: ~4 fold
B1: HA-ITCH-wild type (enzyme)
chain: not shown
notes: E3 ubiquitin ligase ITCH, wild type, gene synthesised (GeneArt, Thermo Fisher); Isoform inferred only from the printed number of the catalytic cysteine (C830A mutant of the same cDNA); also called HA-ITCH-WT; source: HeLa cells negative for Cx43, transfected (pcDNA3.4-TOPO), in lysate
